Experiments:
Experiment in all cases: ninhydrin release assay, A570, Lineweaver-Burk
Format in all cases: biochemical, Aspergillus niger
Details in all cases: 0.1 mol L^−1 disodium hydrogen phosphate-citric acid buffer, pH 6.0, 45 °C
[1] = test system: T1, CC(C)C[C@H](NC(=O)[C@H](Cc1ccccc1)NC(=O)OCc1ccccc1)C(=O)O
T1 construct: ORF 1479 bp, 492 residues with predicted 19-residue signal peptide; secreted from Pichia pastoris GS115 (pPIC9K), purified; no tag told
Description: (§1) ninhydrin release assay, A570, Lineweaver-Burk on CapA (serine carboxypeptidase)

[2] = test system: T2, C[C@H](NC(=O)CNC(=O)OCc1ccccc1)C(=O)O
T2 construct: ORF 1479 bp, 492 residues with predicted 19-residue signal peptide; secreted from Pichia pastoris GS115 (pPIC9K), purified; no tag told
Description: as §1

[3] = test system: T3, C[C@H](NC(=O)OCc1ccccc1)C(=O)N[C@@H](CCC(=O)O)C(=O)O
T3 construct: ORF 1479 bp, 492 residues with predicted 19-residue signal peptide; secreted from Pichia pastoris GS115 (pPIC9K), purified; no tag told
Description: as §1

[4] = test system: T4, C[C@H](NC(=O)OCc1ccccc1)C(=O)N[C@@H](CCCCN)C(=O)O
T4 construct: ORF 1479 bp, 492 residues with predicted 19-residue signal peptide; secreted from Pichia pastoris GS115 (pPIC9K), purified; no tag told
Description: as §1

[5] = test system: T5, O=C(O)CNC(=O)[C@@H]1CCCN1C(=O)OCc1ccccc1
T5 construct: ORF 1479 bp, 492 residues with predicted 19-residue signal peptide; secreted from Pichia pastoris GS115 (pPIC9K), purified; no tag told
Description: as §1

Substance: CapA (serine carboxypeptidase) (Aspergillus niger CBS 513.88)
- Km [1]: 63 ± 10 µM
- Vmax [1]: 54800 µM/min/mg
- kcat [1]: 11.7 ± 1.02 s⁻¹
- kcat/Km [1]: 186000 ± 16700 M⁻¹ s⁻¹
- Km [2]: 240 ± 20 µM
- Vmax [2]: 42700 µM/min/mg
- kcat [2]: 1.71 ± 0.08 s⁻¹
- kcat/Km [2]: 7130 ± 480 M⁻¹ s⁻¹
- Km [3]: 1440 ± 90 µM
- Vmax [3]: 6490 µM/min/mg
- kcat [3]: 0.18 ± 0.01 s⁻¹
- kcat/Km [3]: 130 ± 10 M⁻¹ s⁻¹
- Km [4]: 180 ± 30 µM
- Vmax [4]: 41900 µM/min/mg
- kcat [4]: 2.32 ± 0.17 s⁻¹
- kcat/Km [4]: 12900 ± 1130 M⁻¹ s⁻¹
- Km [5]: 1170 ± 210 µM
- Vmax [5]: 9770 µM/min/mg
- kcat [5]: 0.47 ± 0.02 s⁻¹
- kcat/Km [5]: 400 ± 50 M⁻¹ s⁻¹

Reference: paper PMC8455534, “A new carboxypeptidase from Aspergillus niger with good thermostability, pH stability and broad substrate specificity” (Scientific Reports, 2021)
